In paper PMC8863369, “Heparan sulfate-dependent RAGE oligomerization is indispensable for pathophysiological functions of RAGE” (eLife, 2022):
One block for each molecule: values may come before it.

Columns and labels:
[1] = molecular target: mouse RAGE VC1 domain triple mutant R216A-R217H-R218A (mouse); assay: ELISA; methods: 200 ng mRAGE-WT or mRAGE-AHA coated on the plate, 1% BSA block, biotinylated HMGB1 50-1000 ng/ml for 2 hr, streptavidin-HRP; the legend says HMGB1 was immobilised; apparent Kd
[2] = molecular target: T1, high mobility group Box 1 (HMGB1) (UniProt P63158 1-215, biotin (in the HMGB1 binding ELISA of p-0047; immobilised without a stated label in the ELISA of p-0044)); assay: as above; settings: both partners purified
T1 construct: HMGB1; also called biotinylated HMGB1
T1 sequence (looked up): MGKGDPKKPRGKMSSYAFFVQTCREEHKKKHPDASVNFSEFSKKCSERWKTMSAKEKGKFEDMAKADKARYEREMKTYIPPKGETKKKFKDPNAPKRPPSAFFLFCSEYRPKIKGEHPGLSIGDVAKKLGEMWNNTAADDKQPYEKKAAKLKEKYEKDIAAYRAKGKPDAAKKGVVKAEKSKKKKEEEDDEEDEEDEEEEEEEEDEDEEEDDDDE

[3] = molecular target: T2, mouse RAGE VC1 domain triple mutant R216A-R217H-R218A; assay: gel filtration (Superdex 200); settings: chain shown with the change; incubated with HS dodecasaccharide (H12); Superdex 200 (10/300 mm) gel filtration column; parent: est. 13; read off a plot
T2 chain: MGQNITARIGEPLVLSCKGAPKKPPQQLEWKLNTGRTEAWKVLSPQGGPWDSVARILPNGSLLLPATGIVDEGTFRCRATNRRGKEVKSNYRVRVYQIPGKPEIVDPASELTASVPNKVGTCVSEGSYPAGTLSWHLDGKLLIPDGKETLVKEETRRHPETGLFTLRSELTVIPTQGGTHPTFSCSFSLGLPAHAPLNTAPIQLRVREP

Kd [1]: 9.9 nM
Molecule: high mobility group Box 1 (HMGB1) (from UniProt P63158 1-215) (ligand)

Kd [2]: 11.7 nM
B1: wild-type mouse RAGE VC1 domain (domain or fragment, UniProt Q62151 23-231, looked up)
chain: GQNITARIGEPLVLSCKGAPKKPPQQLEWKLNTGRTEAWKVLSPQGGPWDSVARILPNGSLLLPATGIVDEGTFRCRATNRRGKEVKSNYRVRVYQIPGKPEIVDPASELTASVPNKVGTCVSEGSYPAGTLSWHLDGKLLIPDGKETLVKEETRRHPETGLFTLRSELTVIPTQGGTHPTFSCSFSLGLPRRRPLNTAPIQLRVREPG
notes: RAGE (receptor for advanced glycation end-products, Ager), mouse, V and C1 immunoglobulin domains; also called WT-mVC1; mVC1-WT; source: E. coli, purified (HiTrap SP cation exchange, SEC on Superdex 200)

other: gel filtration elution volume of main peak in presence of H12 [3]: 14 mL
B2: wild-type mouse RAGE VC1 domain, Q62151 R216A; R217H; R218A (protein)
chain: T2 chain
